37 molecules from patent US20260209386A1 (MYTHIC THERAPEUTICS, published 2026) can be followed below.

The test has as its target T1, Human PTK7/CCK4 Protein, His Tag, Acro Biosystems PT7-H52H3 (human, UniProt Q13308 31-704).
T1 construct: bought protein; also called Human PTK7 Protein, His Tag, Acro Biosystems; not shown: His tag
T1 sequence: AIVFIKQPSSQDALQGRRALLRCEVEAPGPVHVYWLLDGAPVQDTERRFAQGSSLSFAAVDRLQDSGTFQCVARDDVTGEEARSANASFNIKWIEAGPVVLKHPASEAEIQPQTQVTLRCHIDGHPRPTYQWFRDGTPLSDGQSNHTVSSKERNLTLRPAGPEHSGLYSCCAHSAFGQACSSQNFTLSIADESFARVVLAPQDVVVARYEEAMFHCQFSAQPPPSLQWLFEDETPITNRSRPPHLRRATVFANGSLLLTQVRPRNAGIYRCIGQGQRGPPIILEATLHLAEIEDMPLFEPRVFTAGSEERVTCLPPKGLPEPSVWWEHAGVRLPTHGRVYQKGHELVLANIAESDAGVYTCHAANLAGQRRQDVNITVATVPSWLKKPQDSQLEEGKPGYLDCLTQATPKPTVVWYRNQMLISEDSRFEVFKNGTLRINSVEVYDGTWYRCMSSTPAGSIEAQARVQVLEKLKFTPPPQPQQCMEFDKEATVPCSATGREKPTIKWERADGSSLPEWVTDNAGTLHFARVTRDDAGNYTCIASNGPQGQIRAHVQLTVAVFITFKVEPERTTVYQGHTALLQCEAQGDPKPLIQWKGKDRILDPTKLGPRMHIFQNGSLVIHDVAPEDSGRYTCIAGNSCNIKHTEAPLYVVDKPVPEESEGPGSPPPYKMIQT
Put plainly: BLI, antibody on anti-human Fc sensor, 50 nM PTK7. (In BLI a coated tip is dipped into the sample, and binding shifts an interference pattern.)

Where a chain is given by its changes, count along the chain named.

B1: MYT11258 (antibody, V domains shown)
VH: EVQLVESGGGLVQPGGSLRLSCTASGIDLHRYSMGWVRQAPGKGLEWVGIISYGGSTYYASWAKGRFTISRDTSKNTVYLQMNSLRAEDTAVYFCARVGYPGYSGYGYAFDAFDPWGQGTLVTVSS
VL: EIVMTQSPSTLSASVGDRVIITCQSSKSVYNDNWLSWYQQKPGKAPKLLIYGASTLASGVPSRFSGSGSGAEFTLTISSLQPDDFATYYCAGGYSSSSDNGFGQGTKLTVL
notes: IgG
In the case of B1, the binding result was “binds”.

B2: MYT11279 (antibody, V domains shown)
VH: B1 VH with H30S, G65H
VL: B1 VL
notes: IgG
Regarding B2, the binding result is recorded as “binds”.

B3: MYT11285 (antibody, V domains shown)
VH: B1 VH with H30S, P101H
VL: B1 VL
notes: IgG
Consider B3, for which the binding result is “binds”.

B4: MYT11263 (antibody, V domains shown)
VH: B1 VH with H30S, G35H
VL: B1 VL
notes: IgG
Turning to B4, the binding result is reported as “binds”.

B5: MYT11322 (antibody, V domains shown)
VH: B1 VH with H30S
VL: B1 VL with A57H
notes: IgG
Turning to B5, the binding result is recorded as “binds”.

B6: MYT11267 (antibody, V domains shown)
VH: B1 VH with H30S, Y53H
VL: B1 VL
notes: IgG
Regarding B6, the binding result was “binds”.

B7: MYT11309 (antibody, V domains shown)
VH: B1 VH with H30S
VL: B1 VL with V29H
notes: IgG
Take B7: the binding result was “binds”.

B8: MYT11289 (antibody, V domains shown)
VH: B1 VH with H30S, G105H
VL: B1 VL
notes: IgG
With B8, the binding result is recorded as “binds”.

B9: MYT11272 (antibody, V domains shown)
VH: B1 VH with H30S, Y58H
VL: B1 VL
notes: IgG
B9: the binding result is “binds”.

B10: MYT11349 (antibody, V domains shown)
VH: EVQLVESGGGLVQPGGSLRLSCTASGIDLSNYAVIWVRQAPGKGLEWVGHIYTYDTTYYANWAKGRFTISRDTSKNTVYLQMNSLRAEDTAVYFCARSFSDISDLIKLWGQGTLVTVSS
VL: EIVMTQSPSTLSASVGDRVIITCQASQSLYNNKDLAWYQQKPGKAPKLLIYEASKLASGVPSRFSGSGSGAEFTLTISSLQPDDFATYYCLGEFSCGSGDCLAFGQGTKLTVL
notes: IgG
B10: the binding result is “binds”.

B11: MYT11355 (antibody, V domains shown)
VH: B10 VH with H50I, T56H
VL: B10 VL
notes: IgG
Consider B11, for which the binding result is “binds”.

B12: MYT11354 (antibody, V domains shown)
VH: B10 VH with H50I, D55H
VL: B10 VL
notes: IgG
As for B12, the binding result is recorded as “binds”.

B13: MYT11352 (antibody, V domains shown)
VH: B10 VH with H50I, T53H
VL: B10 VL
notes: IgG
In the case of B13, the binding result was “binds”.

B14: MYT11182 (antibody, V domains shown)
VH: EVQLVESGGGLVQPGGSLRLSCTASGIHLSSYVMGWVRQAPGKGLEWVGYIYGGGGTYYATWARGRFTISRDTSKNTVYLQMNSLRAEDTAVYFCARAAADFYFNLWGQGTLVTVSS
VL: EIVMTQSPSTLSASVGDRVIITCQASQSISSYLAWYQQKPGKAPKLLIYDISDLASGVPSRFSGSGSGAEFTLTISSLQPDDFATYYCQSYYWISNSGAAFGQGTKLTVL
notes: IgG
As to B14, the binding result is “binds”.

B15: MYT11197 (antibody, V domains shown)
VH: B14 VH with H28D, T57H
VL: B14 VL
notes: IgG
Turning to B15, the binding result was “binds”.

B16: MYT11222 (antibody, V domains shown)
VH: B14 VH with H28D
VL: B14 VL with S26H
notes: IgG
Regarding B16, the binding result was “binds”.

B17: MYT11246 (antibody, V domains shown)
VH: B14 VH with H28D
VL: B14 VL with S97H
notes: IgG
As for B17, the binding result is on record as “binds”.

B18: MYT11184 (antibody, V domains shown)
VH: B14 VH with H28D, S30H
VL: B14 VL
notes: IgG
In the case of B18, the binding result is “binds”.

B19: MYT11225 (antibody, V domains shown)
VH: B14 VH with H28D
VL: B14 VL with I29H
notes: IgG
On to B19, for which the binding result is listed as “binds”.

B20: MYT11196 (antibody, V domains shown)
VH: B14 VH with H28D, G56H
VL: B14 VL
notes: IgG
With B20, the binding result is on record as “binds”.

B21: MYT11247 (antibody, V domains shown)
VH: B14 VH with H28D
VL: B14 VL with G98H
notes: IgG
Turning to B21, the binding result is recorded as “binds”.

B22: MYT11193 (antibody, V domains shown)
VH: B14 VH with H28D, G53H
VL: B14 VL
notes: IgG
Turning to B22, the binding result was “binds”.

B23: MYT11248 (antibody, V domains shown)
VH: B14 VH with H28D
VL: B14 VL with A99H
notes: IgG
Regarding B23, the binding result is on record as “binds”.

B24: MYT11210 (antibody, V domains shown)
VH: B14 VH with H28D, A100H
VL: B14 VL
notes: IgG
On to B24, for which the binding result was “binds”.

B25: MYT11244 (antibody, V domains shown)
VH: B14 VH with H28D
VL: B14 VL with S95H
notes: IgG
Regarding B25, the binding result was “binds”.

B26: MYT11236 (antibody, V domains shown)
VH: B14 VH with H28D
VL: B14 VL with A55H
notes: IgG
Regarding B26, the binding result is “binds”.

B27: MYT11224 (antibody, V domains shown)
VH: B14 VH with H28D
VL: B14 VL with S28H
notes: IgG
For B27, the binding result is on record as “binds”.

B28: MYT11194 (antibody, V domains shown)
VH: B14 VH with H28D, G54H
VL: B14 VL
notes: IgG
Turning to B28, the binding result was “binds”.

B29: MYT11245 (antibody, V domains shown)
VH: B14 VH with H28D
VL: B14 VL with N96H
notes: IgG
With B29, the binding result is given as “binds”.

B30: MYT11213 (antibody, V domains shown)
VH: B14 VH with H28D, Y103H
VL: B14 VL
notes: IgG
For B30, the binding result is reported as “binds”.

B31: MYT11240 (antibody, V domains shown)
VH: B14 VH with H28D
VL: B14 VL with Y91H
notes: IgG
On to B31, for which the binding result was “binds”.

B32: MYT11238 (antibody, V domains shown)
VH: B14 VH with H28D
VL: B14 VL with Q89H
notes: IgG
Regarding B32, the binding result is on record as “binds”.

B33: MYT11249 (antibody, V domains shown)
VH: B14 VH with H28D
VL: B14 VL with A100H
notes: IgG
As to B33, the binding result is “binds”.

B34: MYT11229 (antibody, V domains shown)
VH: B14 VH with H28D
VL: B14 VL with L33H
notes: IgG
B34: the binding result is recorded as “binds”.

B35: MYT11221 (antibody, V domains shown)
VH: B14 VH with H28D
VL: B14 VL with A25H
notes: IgG
Take B35: the binding result is on record as “binds”.

B36: MYT11195 (antibody, V domains shown)
VH: B14 VH with H28D, G55H
VL: B14 VL
notes: IgG
For the molecule B36, the binding result is listed as “binds”.

B37: MYT11192 (antibody, V domains shown)
VH: B14 VH with H28D, Y52H
VL: B14 VL
notes: IgG
B37: the binding result is on record as “binds”.
